Where a chain is given by its changes, count along the chain named.
Experiments:
[1] = molecular target: human FcR I and FcR II on cells; assay: 125I-human IgG on U937 cells in the absence of inhibitor
[2] = molecular target: human FcR I and FcR II on cells; assay: competitive inhibition of PE-murine IgG2a or 125I-human IgG binding to U937 cells
[3] = molecular target: T1, human CD3 complex (human, UniProt P07766 23-207); assay: competition against FITC-mOKT3 tracer on human PBMC, flow cytometry; affinity calculated from the competitor concentration at half-maximal tracer binding (FIG. 3A)
T1 construct: whole, on cells; In all assays the target stood on cells as the whole TCR/CD3 complex; also called CD3 antigen; TCR complex

[4] = molecular target: T1, human CD3 complex; assay: competition against FITC-mOKT3 tracer on human PBMC, flow cytometry; affinity calculated from the competitor concentration at half-maximal tracer binding (FIG. 3B)

Question: How did the maximum binding [1] turn out when 125I-labelled human IgG (antibody) was run?
Answer: Its maximum binding is 2750 cpm.

Question: And the maximum binding as percent of the total radioactivity added [1]?
Answer: Its maximum binding as percent of the total radioactivity added is 15%.

B1: gOKT3-5 (antibody, human IgG4, V domains shown)
VH: QVQLVQSGGGVVQPGRSLRLSCKASGYTFTRYTMHWVRQAPGKGLEWIGYINPSRGYTNYNQKVKDRFTISTDKSKSTAFLQMDSLRPEDTAVYYCARYYDDHYCLDYWGQGTPVTVSS
VL: DIQMTQSPSSLSASVGDRVTITCSASSSVSYMNWYQQTPGKAPKRWIYDTSKLASGVPSRFSGSGSGTDYTFTISSLQPEDIATYYCQQWSSNPFTFGQGTKLQITR
notes: Humanized OKT3, human IgG4/kappa; also called gLC/gHA; gOKT3-5(γ4); not shown: human IgG4 heavy chain constant region; human kappa light chain constant region
Question: Which fold higher concentration for the same inhibition, against murine OKT3 [2] does the source give for B1 here?
Answer: Its fold higher concentration for the same inhibition, against murine OKT3 is 10 fold.

Question: What about the Ka [3] of the same molecule?
Answer: The Ka was 1.1e+09 M⁻¹.

B2: gOKT3-7(γ4) (antibody, V domains shown)
VH: B1 VH with T72R, K74N, S77N, A92G, Y95F
VL: B1 VL
Question: With B2 as the molecule, how does the Ka [4] read?
Answer: The Ka was 1.4e+09 M⁻¹.

Source: patent US20030108548A1 (TOLERANCE THERAPEUTICS, published 2003)
